T1: human recombinant GIP receptor (human, UniProt P48546 22-466)
T1 construct: whole, on cells; Assayed as washed membranes of CHO-K1 cells expressing the receptor; also called hGIP receptor
T1 sequence (looked up): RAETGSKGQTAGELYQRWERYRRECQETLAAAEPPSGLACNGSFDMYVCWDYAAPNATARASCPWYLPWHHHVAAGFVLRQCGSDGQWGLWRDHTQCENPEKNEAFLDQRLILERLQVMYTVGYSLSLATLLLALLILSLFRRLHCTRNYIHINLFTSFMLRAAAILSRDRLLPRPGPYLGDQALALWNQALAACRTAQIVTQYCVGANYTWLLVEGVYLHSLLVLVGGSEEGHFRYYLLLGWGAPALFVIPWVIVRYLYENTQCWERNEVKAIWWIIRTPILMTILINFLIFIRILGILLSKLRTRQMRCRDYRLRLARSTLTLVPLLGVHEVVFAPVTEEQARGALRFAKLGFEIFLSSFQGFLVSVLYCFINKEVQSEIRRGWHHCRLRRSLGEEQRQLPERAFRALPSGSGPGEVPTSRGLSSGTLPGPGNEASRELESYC

B1: (His^1, Aib^2, 13, Nle^14)hGIP(1-42)-OH (peptide)
peptide: HXEGTFISDYSIXXDKIHQQDFVNWLLAQKGKKNDWKHNITQ
modifications: Aib at 2 and 13; Nle at 14
B2: (3,5Br-Tyr^1, Aib^2, 13, Nle^14)hGIP(1-42)-OH (peptide)
peptide: YXEGTFISDYSIXXDKIHQQDFVNWLLAQKGKKNDWKHNITQ
modifications: 3,5Br-Tyr at 1; Aib at 2 and 13; Nle at 14
B3: (4NH2-Phe^1, Aib^2, A5c^11, Nle^14)hGIP(1-42)-OH (peptide)
peptide: FXEGTFISDYXIAXDKIHQQDFVNWLLAQKGKKNDWKHNITQ
modifications: 4NH2-Phe at 1; Aib at 2; A5c at 11; Nle at 14
B4: (3,5Br-Tyr^1, Aib^2, A5c^11, Nle^14)hGIP(1-42)-OH (peptide)
peptide: YXEGTFISDYXIAXDKIHQQDFVNWLLAQKGKKNDWKHNITQ
modifications: 3,5Br-Tyr at 1; Aib at 2; A5c at 11; Nle at 14
B5: (3,5I-Tyr^1, Aib^2, A5c^11, Nle^14)hGIP(1-42)-OH (peptide)
peptide: YXEGTFISDYXIAXDKIHQQDFVNWLLAQKGKKNDWKHNITQ
modifications: 3,5I-Tyr at 1; Aib at 2; A5c at 11; Nle at 14
B6: (3Br-Tyr^1, Aib^2, A5c^11, Nle^14)hGIP(1-42)-OH (peptide)
peptide: YXEGTFISDYXIAXDKIHQQDFVNWLLAQKGKKNDWKHNITQ
modifications: 3Br-Tyr at 1; Aib at 2; A5c at 11; Nle at 14
B7: (3Cl-Tyr^1, Aib^2, A5c^11, Nle^14)hGIP(1-42)-OH (peptide)
peptide: YXEGTFISDYXIAXDKIHQQDFVNWLLAQKGKKNDWKHNITQ
modifications: 3Cl-Tyr at 1; Aib at 2; A5c at 11; Nle at 14
B8: (3I-Tyr^1, Aib^2, A5c^11, Nle^14)hGIP(1-42)-OH (peptide)
peptide: YXEGTFISDYXIAXDKIHQQDFVNWLLAQKGKKNDWKHNITQ
modifications: 3I-Tyr at 1; Aib at 2; A5c at 11; Nle at 14
B9: (His^1, Aib^2, A5c^11, Nle^14)hGIP(1-42)-OH (peptide)
peptide: HXEGTFISDYXIAXDKIHQQDFVNWLLAQKGKKNDWKHNITQ
modifications: Aib at 2; A5c at 11; Nle at 14
B10: (hTyr^1, Aib^2, A5c^11, Nle^14)hGIP(1-42)-OH (peptide)
peptide: XXEGTFISDYXIAXDKIHQQDFVNWLLAQKGKKNDWKHNITQ
modifications: hTyr at 1; Aib at 2; A5c at 11; Nle at 14
B11: (4Hppa^1, Aib^2, A5c^7, Nle^14)hGIP(1-30)-NH2 (peptide)
peptide: XXEGTFXSDYSIAXDKIHQQDFVNWLLAQK
modifications: 4Hppa (3-(4-hydroxyphenyl)propionic acid) at 1; Aib at 2; A5c at 7; Nle at 14; C-terminal amide
B12: (Cpa^1, Aib^2, A5c^11, Nle^14)hGIP(1-42)-OH (peptide)
peptide: XXEGTFISDYXIAXDKIHQQDFVNWLLAQKGKKNDWKHNITQ
modifications: Cpa (4-Cl-phenylalanine) at 1; Aib at 2; A5c at 11; Nle at 14
B13: (4NH2CH2-Phe^1, Aib^2, A5c^11, Nle^14)hGIP(1-42)-OH (peptide)
peptide: FXEGTFISDYXIAXDKIHQQDFVNWLLAQKGKKNDWKHNITQ
modifications: 4NH2CH2-Phe at 1; Aib at 2; A5c at 11; Nle at 14
B14: (3,4,5F-Phe^1, Aib^2, A5c^11, Nle^14)hGIP(1-42)-OH (peptide)
peptide: FXEGTFISDYXIAXDKIHQQDFVNWLLAQKGKKNDWKHNITQ
modifications: 3,4,5F-Phe at 1; Aib at 2; A5c at 11; Nle at 14
B15: (3F-Phe^1, Aib^2, A5c^11, Nle^14)hGIP(1-42)-OH (peptide)
peptide: FXEGTFISDYXIAXDKIHQQDFVNWLLAQKGKKNDWKHNITQ
modifications: 3F-Phe at 1; Aib at 2; A5c at 11; Nle at 14
B16: (3,4F-Phe^1, Aib^2, A5c^11, Nle^14)hGIP(1-42)-OH (peptide)
peptide: FXEGTFISDYXIAXDKIHQQDFVNWLLAQKGKKNDWKHNITQ
modifications: 3,4F-Phe at 1; Aib at 2; A5c at 11; Nle at 14
B17: (3,5F-Phe^1, Aib^2, A5c^11, Nle^14)hGIP(1-42)-OH (peptide)
peptide: FXEGTFISDYXIAXDKIHQQDFVNWLLAQKGKKNDWKHNITQ
modifications: 3,5F-Phe at 1; Aib at 2; A5c at 11; Nle at 14
B18: (3OH-Tyr^1, Aib^2, A5c^11, 41)hGIP(1-42)-OH (peptide)
peptide: YXEGTFISDYXIAMDKIHQQDFVNWLLAQKGKKNDWKHNIXQ
modifications: 3OH-Tyr at 1; Aib at 2; A5c at 11 and 41
B19: (3F-Phe^1, Aib^2, A5c^11, 41)hGIP(1-42)-OH (peptide)
peptide: FXEGTFISDYXIAMDKIHQQDFVNWLLAQKGKKNDWKHNIXQ
modifications: 3F-Phe at 1; Aib at 2; A5c at 11 and 41
B20: (3OH-Phe^1, Aib^2, A5c^11, 41)hGIP(1-42)-OH (peptide)
peptide: FXEGTFISDYXIAMDKIHQQDFVNWLLAQKGKKNDWKHNIXQ
modifications: 3OH-Phe at 1; Aib at 2; A5c at 11 and 41
B21: (4CN-Phe^1, Aib^2, A5c^11, 41)hGIP(1-42)-OH (peptide)
peptide: FXEGTFISDYXIAMDKIHQQDFVNWLLAQKGKKNDWKHNIXQ
modifications: 4CN-Phe at 1; Aib at 2; A5c at 11 and 41
B22: (4F-Phe^1, Aib^2, A5c^11, 41)hGIP(1-42)-OH (peptide)
peptide: FXEGTFISDYXIAMDKIHQQDFVNWLLAQKGKKNDWKHNIXQ
modifications: 4F-Phe at 1; Aib at 2; A5c at 11 and 41
B23: (3MeO-Tyr^1, Aib^2, A5c^11, 41)hGIP(1-42)-OH (peptide)
peptide: YXEGTFISDYXIAMDKIHQQDFVNWLLAQKGKKNDWKHNIXQ
modifications: 3MeO-Tyr at 1; Aib at 2; A5c at 11 and 41
B24: [Tyr(Ac)^1, Aib^2, A5c^11, 41]hGIP(1-42)-OH (peptide)
peptide: YXEGTFISDYXIAMDKIHQQDFVNWLLAQKGKKNDWKHNIXQ
modifications: Tyr(Ac) at 1; Aib at 2; A5c at 11 and 41
B25: (4Hppa^1, Aib^2, 11, Nle^14)hGIP(1-30)-NH2 (peptide)
peptide: XXEGTFISDYXIAXDKIHQQDFVNWLLAQK
modifications: 4Hppa at 1; Aib at 2 and 11; Nle at 14; C-terminal amide

molecular target: T1, human recombinant GIP receptor; test: displacement of [125I]GIP, membranes of CHO-K1 cells expressing human GIP receptor
Description: Membranes for in vitro receptor binding assays were prepared by homogenizing the CHO—K1 clonal cells expressing the human recombinant GIP receptor, with a Brinkman Polytron (setting 6, 15 sec), in ice-cold 50 mM Tris-HCl and then subjected to two centrifugations at 39,000 g for 10 minutes, with a resuspension in fresh buffer in between. For the assay, aliquots of the washed membrane preparations were incubated (100 minutes at 25° C. with 0.05 nM [¹²⁵1]GIP (2200 Ci/mmol) in 50 mM Tris-HCl, 0.1 mg/ml bacitracin, and 0.1% BSA. The final assay volume was 0.5 ml. The incubations were terminated by rapid filtration through GF/C filters (pre-soaked in 0.5% polyethylenimine) using a Brandel filtration manifold. Each tube and filter were then washed three times with 5-ml aliquots of ice-cold buffer.
Specific binding was defined as the total radioligand bound minus that bound in the presence of 1000 nM GIP.

With B1 as the binder, how does the Ki read?
Its Ki is 3.33 nM.

Which Ki does the source give for B2 here?
Its Ki is 4.26 nM.

How did the Ki turn out when B3 was run?
The Ki was 3.4 nM.

Which Ki does the source give for B4 here?
Its Ki is 21.8 nM.

How did the Ki turn out when B5 was run?
The Ki was 77.9 nM.

How did the Ki turn out when B6 was run?
The Ki was 0.6 nM.

How did the Ki turn out when B7 was run?
The Ki was 0.42 nM.

With B8 as the binder, how does the Ki read?
The Ki was 5.03 nM.

For B9, which Ki is on record?
Its Ki is 3.18 nM.

For B10, which Ki is on record?
Its Ki is 77.3 nM.

For B11, which Ki is on record?
Its Ki is 12.6 nM.

Which Ki does the source give for B12 here?
Its Ki is 9.4 nM.

B13 was tested. Which Ki did it give?
The Ki was 95 nM.

B14 was tested. Which Ki did it give?
The Ki was 31.1 nM.

B15 was tested. Which Ki did it give?
Its Ki is 2.7 nM.

With B16 as the binder, how does the Ki read?
The Ki was 15.7 nM.

B17 was tested. Which Ki did it give?
The Ki was 26 nM.

With B18 as the binder, how does the Ki read?
Its Ki is 6.69 nM.

With B19 as the binder, how does the Ki read?
The Ki was 5.43 nM.

For B20, which Ki is on record?
Its Ki is 7.52 nM.

Which Ki does the source give for B21 here?
Its Ki is 14.4 nM.

Which Ki does the source give for B22 here?
Its Ki is 5.82 nM.

For B23, which Ki is on record?
Its Ki is 1.24 nM.

For B24, which Ki is on record?
Its Ki is 0.73 nM.

With B25 as the binder, how does the Ki read?
The Ki was 20.3 nM.
